In one assay the target is Noggin (Homo sapiens) (UniProt Q13253). Put plainly: SPR. Particulars: cited from earlier work.
Assay [1] concerns the target Noggin (residues 28-232) (human (from the UniProt entry Q13253)) (UniProt Q13253). Put plainly: BLI; biotinylated Noggin (4 ug/mL) immobilised on streptavidin-coated biosensors, BMP-2 1 to 22.8 nM in solution; 30 °C; 50 mM sodium citrate pH 6.8, 150 mM NaCl, 1 mM magnesium acetate, 0.02% CHAPS; 1:1 interaction model; three repetitions. A general note: BLI is a label-free optical method that tracks binding on a fibre tip over time.

The target of assay [2] is BMP-2 N102D mutant, mature form (human). Nature of the assay: SDS-PAGE under reducing and nonreducing conditions; purified, refolded protein on 4 to 20% SDS-PAGE, Coomassie blue; covalent (disulphide) dimer.
Assay [3] has as its target T1, Bone morphogenetic protein 2 (BMP-2), wild type, mature form (human).
T1 sequence (P12643 whole entry, looked up): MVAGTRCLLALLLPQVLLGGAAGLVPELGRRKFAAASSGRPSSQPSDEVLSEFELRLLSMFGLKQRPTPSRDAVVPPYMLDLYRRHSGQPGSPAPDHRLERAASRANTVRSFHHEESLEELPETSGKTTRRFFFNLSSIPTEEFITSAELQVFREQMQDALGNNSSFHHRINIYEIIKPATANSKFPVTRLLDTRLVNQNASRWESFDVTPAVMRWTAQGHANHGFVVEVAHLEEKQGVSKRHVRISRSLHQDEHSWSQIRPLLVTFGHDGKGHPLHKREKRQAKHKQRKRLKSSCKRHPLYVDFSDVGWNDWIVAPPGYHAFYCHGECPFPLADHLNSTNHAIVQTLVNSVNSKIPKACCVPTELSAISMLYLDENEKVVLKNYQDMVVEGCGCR
The description is as above.

As a reminder, the Kd is the constant that tells how readily two partners part at equilibrium. What is called koff is a measure of how fast the partners let go of each other. Low values mean a long-lived complex, high ones a short-lived complex. The term kon denotes the second-order rate constant of association. A higher kon goes with faster complex formation. A word on the stoichiometry N: it is a count of units in the complex or per binding partner.

Chain of Noggin (residues 28-232) (human (Q13253 other isoform, or with tags, fused parts or gaps): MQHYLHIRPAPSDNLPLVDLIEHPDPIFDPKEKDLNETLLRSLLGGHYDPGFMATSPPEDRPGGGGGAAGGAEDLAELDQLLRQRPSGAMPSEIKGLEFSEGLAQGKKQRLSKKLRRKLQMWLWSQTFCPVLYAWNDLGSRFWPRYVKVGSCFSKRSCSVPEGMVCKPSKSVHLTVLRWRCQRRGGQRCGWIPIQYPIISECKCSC
Chain of Noggin (Homo sapiens) (Q13253 28-232): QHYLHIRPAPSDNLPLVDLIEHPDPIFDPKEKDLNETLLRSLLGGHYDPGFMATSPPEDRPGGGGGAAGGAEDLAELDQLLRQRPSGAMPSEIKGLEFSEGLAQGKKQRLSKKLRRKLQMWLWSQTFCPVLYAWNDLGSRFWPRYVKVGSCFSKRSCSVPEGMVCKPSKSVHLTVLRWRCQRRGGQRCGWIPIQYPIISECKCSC

On to BMP-2 (from UniProt P12643), for which the Kd in the assay with Noggin (Homo sapiens) is 0.6 nM.
In assay [1], “BMP-2 N102D mutant, mature form (ligand)” returned a Kd of 0.3 nM, an off-rate (koff) of 0.0007 s⁻¹ and a kon of 2.3e+06 M⁻¹ s⁻¹. The substance further showed a stoichiometry N in assay [2] of 2.
On to “Bone morphogenetic protein 2 (BMP-2), wild type, mature form (ligand)”, for which, in assay [1], the Kd was found to be 0.36 nM, the koff was 0.00042 s⁻¹, the kon was 1.2e+06 M⁻¹ s⁻¹ and the stoichiometry N is 1. The same substance had a stoichiometry N in assay [3] of 2.

The values are drawn from publication PMC9929448.
